Data on one molecule can be found in US20220283173A1.

The target of test [1] is Anti-Mx1-AF488. Nature of the test: competitive TR-FRET; unlabelled MxA at 0.000 (no competitor, the reference R0) with Mx1-L4 and Anti-Mx1-AF488.
In test [2] the target is Anti-Mx1-AF488. Nature of the test: competitive TR-FRET; unlabelled MxA at 25.000 (unit µ/mL [sic]) displacing Mx1-L4 from Anti-Mx1-AF488.
The target of test [3] is Anti-Mx1-AF488. Nature of the test: competitive TR-FRET; unlabelled MxA at 0.024 (unit µ/mL [sic]) displacing Mx1-L4 from Anti-Mx1-AF488.
For test [4], the target named is Anti-Mx1-AF488. Nature of the test: competitive TR-FRET; unlabelled MxA at 0.098 (unit µ/mL [sic]) displacing Mx1-L4 from Anti-Mx1-AF488.
Test [5] has as its target Anti-Mx1-AF488. Nature of the test: competitive TR-FRET; unlabelled MxA at 0.006 (unit µ/mL [sic]) displacing Mx1-L4 from Anti-Mx1-AF488. A general note: TR-FRET usually uses a lanthanide donor and a delayed reading to cut background.
In test [6] the target is Anti-Mx1-AF488. Nature of the test: competitive TR-FRET; unlabelled MxA at 0.391 (unit µ/mL [sic]) displacing Mx1-L4 from Anti-Mx1-AF488.
Test [7] concerns the target Anti-Mx1-AF488. The test can be described thus: competitive TR-FRET; unlabelled MxA at 6.250 (unit µ/mL [sic]) displacing Mx1-L4 from Anti-Mx1-AF488.
Test [8] addresses Anti-Mx1-AF488. The test can be described thus: competitive TR-FRET; unlabelled MxA at 1.563 (unit µ/mL [sic]) displacing Mx1-L4 from Anti-Mx1-AF488.

B1: Human myxovirus resistance protein A (MxA), unlabelled standard (protein)
chain: MVVSEVDIAKADPAAASHPLLLNGDATVAQKNPGSVAENNLCSQYEEKVRPCIDLIDSLRALGVEQDLALPAIAVIGDQSSGKSSVLEALSGVALPRGSGIVTRCPLVLKLKKLVNEDKWRGKVSYQDYEIEISDASEVEKEINKAQNAIAGEGMGISHELITLEISSRDVPDLTLIDLPGITRVAVGNQPADIGYKIKTLIKKYIQRQETISLVVVPSNVDIATTEALSMAQEVDPEGDRTIGILTKPDLVDKGTEDKVVDVVRNLVFHLKKGYMIVKCRGQQEIQDQLSLSEALQREKIFFENHPYFRDLLEEGKATVPCLAEKLTSELITHICKSLPLLENQIKETHQRITEELQKYGVDIPEDENEKMFFLIDKVNAFNQDITALMQGEETVGEEDIRLFTRLRHEFHKWSTIIENNFQEGHKILSRKIQKFENQYRGRELPGFVNYRTFETIVKQQIKALEEPAVDMLHTVTDMVRLAFTDVSIKNFEEFFNLHRTAKSKIEDIRAEQEREGEKLIRLHFQMEQIVYCQDQVYRGALQKVREKELEEEKKKKSWDFGAFQSSSATDSSMEEIFQHLMAYHQEASKRISSHIPLIIQFFMLQTYGQQLQKAMLQLLQDKDTYSWLLKERSDTSDKRKFLKERLARLTQARRRLAQFPG
Turning to B1, the R/R0 came to 1 with Anti-Mx1-AF488 [1]; 0.32 with Anti-Mx1-AF488 [2]; 0.99 with Anti-Mx1-AF488 [3]; 0.97 in the test with Anti-Mx1-AF488 [4]; 0.94 in the test with Anti-Mx1-AF488 [5]; 0.89 with Anti-Mx1-AF488 [6]. The R/R0 in the test with Anti-Mx1-AF488 [7] was 0.43; with Anti-Mx1-AF488 [8] it was 0.72.
